Blank lines part the entries; values can stand above or below the compound they belong to.
Columns and labels:
[1] = target: FAD synthetase from Streptococcus pneumoniae (SpnFADS) (Streptococcus pneumoniae); experiment: cross-linking; pure SpnFADS in 50 mM KHPO4, pH 8.0, with BS3 crosslinker for 2 h at 4 °C, then 15% SDS-PAGE
[2] = target: FAD synthetase from Streptococcus pneumoniae (SpnFADS) (Streptococcus pneumoniae); experiment: atomic force microscopy; 0.5 uM SpnFADS on mica, with 250 uM ADP; 20 mM PIPES, pH 6.0, 2 mM DTT, 0.8 mM MgCl2, room temperature
[3] = target: FAD synthetase from Streptococcus pneumoniae (SpnFADS) (Streptococcus pneumoniae); experiment: atomic force microscopy; 0.5 uM SpnFADS on mica, with 250 uM ATP and 50 uM RF; 20 mM PIPES, pH 6.0, 2 mM DTT, 0.8 mM MgCl2, room temperature
[4] = target: FAD synthetase from Streptococcus pneumoniae (SpnFADS) (Streptococcus pneumoniae); experiment: atomic force microscopy; 0.5 uM SpnFADS on mica, with 250 uM ADP and 50 uM FMN; 20 mM PIPES, pH 6.0, 2 mM DTT, 0.8 mM MgCl2, room temperature
[5] = target: FAD synthetase from Streptococcus pneumoniae (SpnFADS) (Streptococcus pneumoniae); experiment: atomic force microscopy; 0.5 uM SpnFADS on mica, with 50 uM FAD and 250 uM PPi; 20 mM PIPES, pH 6.0, 2 mM DTT, 0.8 mM MgCl2, room temperature
[6] = target: FAD synthetase from Streptococcus pneumoniae (SpnFADS) (Streptococcus pneumoniae); experiment: atomic force microscopy; 0.5 uM SpnFADS on mica, no ligand; 20 mM PIPES, pH 6.0, 2 mM DTT, 0.8 mM MgCl2, room temperature
[7] = target: FAD synthetase from Streptococcus pneumoniae (SpnFADS) (Streptococcus pneumoniae); experiment: atomic force microscopy; 0.5 uM SpnFADS on mica, with 250 uM ATP and 50 uM FMN; 20 mM PIPES, pH 6.0, 2 mM DTT, 0.8 mM MgCl2, room temperature
[8] = target: FAD synthetase from Streptococcus pneumoniae (SpnFADS) (Streptococcus pneumoniae); experiment: atomic force microscopy; 0.5 uM SpnFADS on mica, with 250 uM ATP; 20 mM PIPES, pH 6.0, 2 mM DTT, 0.8 mM MgCl2, room temperature
SpnFADS [9] = target: T1, SpnFADS (Streptococcus pneumoniae, UniProt A0A0H2UPY5); experiment: isothermal titration calorimetry; type: binding; conditions: 20 mM PIPES pH 7.0, 20 °C, free enzyme
T1 construct: gene SP_1110; full length (modules 1-186 FMNAT, 187-305 RFK); N-terminal His6-PreScission tag removed; codon-optimised synthetic gene in modified pET-15b, E. coli BL21 Star (DE3); 34,521 Da; mainly monomer
Text: isothermal titration calorimetry on SpnFADS

SpnFADS [10] = target: T1, SpnFADS; experiment: HPLC of flavin products, steady-state RFK activity; type: biochemical; conditions: saturating ATP (412 μM), 20 mM PIPES pH 7.0, 25 °C, 0.8 mM MgCl2, no dithionite
Text: HPLC of flavin products, steady-state RFK activity on SpnFADS

[11] = SEC; 20 uM pure SpnFADS on a calibrated Superdex 200 10/300 GL column, 50 mM Tris/HCl, pH 8.0, 150 mM NaCl; freshly purified fraction considered as monomeric
SpnFADS [12] = target: T1, SpnFADS; experiment: HPLC of flavin products, steady-state FMNAT activity; type: biochemical; conditions: 20 mM PIPES pH 7.0, 25 °C
Text: HPLC of flavin products, steady-state FMNAT activity on SpnFADS

[13] = 0.8 mM MgCl2, 4 mM sodium dithionite, 10 mM glucose, 0.5 U/mL glucose oxidase, reduced flavin, single site (FMNAT)

T1 sequence (A0A0H2UPY5 entry or part of it): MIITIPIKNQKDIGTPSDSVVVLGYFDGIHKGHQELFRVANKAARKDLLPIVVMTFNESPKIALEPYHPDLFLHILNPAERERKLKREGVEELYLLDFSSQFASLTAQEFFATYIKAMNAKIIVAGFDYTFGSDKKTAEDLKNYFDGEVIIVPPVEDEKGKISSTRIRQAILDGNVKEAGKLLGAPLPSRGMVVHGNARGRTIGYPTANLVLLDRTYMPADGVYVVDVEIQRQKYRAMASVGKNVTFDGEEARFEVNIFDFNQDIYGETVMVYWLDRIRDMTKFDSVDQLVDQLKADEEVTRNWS

- stoichiometry N [1]: 2
- % of features that are dimers [2]: 7%
- % of features that are monomers [2]: 60%
- % of features that are tetramers [2]: 20%
- % of features that are trimers [2]: 13%
- % of molecules in dimers [2]: 7%
- % of molecules in monomers [2]: 31%
- % of molecules in tetramers [2]: 47%
- % of molecules in trimers [2]: 20%
- % of features that are dimers [3]: 20%
- % of features that are monomers [3]: 73%
- % of features that are trimers [3]: 7%
- % of molecules in dimers [3]: 30%
- % of molecules in monomers [3]: 54%
- % of molecules in trimers [3]: 16%
- % of features that are dimers [4]: 15%
- % of features that are monomers [4]: 63%
- % of features that are trimers [4]: 22%
- % of molecules in dimers [4]: 19%
- % of molecules in monomers [4]: 40%
- % of molecules in trimers [4]: 41%
- % of features that are dimers [5]: 7%
- % of features that are monomers [5]: 73%
- % of features that are trimers [5]: 20%
- % of molecules in dimers [5]: 9%
- % of molecules in monomers [5]: 50%
- % of molecules in trimers [5]: 41%
- % of features that are dimers [6]: 3%
- % of features that are monomers [6]: 97%
- % of molecules in dimers [6]: 6%
- % of molecules in monomers [6]: 94%
- % of features that are dimers [7]: 7%
- % of features that are monomers [7]: 73%
- % of features that are trimers [7]: 20%
- % of molecules in dimers [7]: 9%
- % of molecules in monomers [7]: 50%
- % of molecules in trimers [7]: 41%
- % of features that are dimers [8]: 12%
- % of features that are monomers [8]: 70%
- % of features that are trimers [8]: 18%
- % of molecules in dimers [8]: 16%
- % of molecules in monomers [8]: 47%
- % of molecules in trimers [8]: 37%
Compound: FAD synthetase from Streptococcus pneumoniae (SpnFADS) (enzyme)

Compound: Cc1cc2c(cc1C)N(C[C@H](O)[C@H](O)[C@H](O)COP(=O)(O)OP(=O)(O)OC[C@H]1O[C@@H](n3cnc4c(N)ncnc43)[C@H](O)[C@@H]1O)c1[nH]c(=O)[nH]c(=O)c1N2 [reduced FAD]
- K d (μM) (SpnFADS [9]; [13]): 12.5 ± 20% μM

Compound: Cc1cc2nc3c(=O)[nH]c(=O)nc-3n(C[C@H](O)[C@H](O)[C@H](O)CO)c2cc1C [RF]
- K m ^RF (μM) (SpnFADS [10]): 0.9 ± 10% μM

Compound: FAD synthetase from Streptococcus pneumoniae (SpnFADS)
- percent of the protein in the main peak at ~14.5 mL (monomers or dimers) [11]: ∼96% of the protein

Compound: Nc1ncnc2c1ncn2[C@@H]1O[C@H](COP(=O)(O)OP(=O)(O)OP(=O)(O)O)[C@@H](O)[C@H]1O [ATP]
- K m ^ATP (μM) (SpnFADS [12]; FMN 27.7 µM for kcat, 0.8 mM MgCl2, 3 mM sodium dithionite): 31.6 ± 10% µM
- K d (μM) (SpnFADS [9]; 0.8 mM MgCl2, single site): 9.4 ± 20% μM

Compound: Cc1cc2c(cc1C)N(C[C@H](O)[C@H](O)[C@H](O)COP(=O)(O)O)c1[nH]c(=O)[nH]c(=O)c1N2 [reduced FMN]
- K m ^RF (μM) (SpnFADS [12]; saturating ATP (252 μM), 0.8 mM MgCl2, 3 mM sodium dithionite (flavin reduced)): 9.8 ± 10% µM
- K d (SpnFADS [9]; [13]): 0.8 ± 20% μM

Compound: Nc1ncnc2c1ncn2[C@@H]1O[C@H](COP(=O)(O)OP(=O)(O)O)[C@@H](O)[C@H]1O [ADP]
- K d (μM) (SpnFADS [9]; no MgCl2, single site): 4.1 ± 20% μM
